Laboratory results reported in paper PMC10976854 (Cell, 2024).

Target: the molecule itself
Assay: crystal structure

B1: mZP2-N2N3 (mouse ZP2 NTR ΔN1 construct) (domain or fragment, UniProt P20239 135-360, looked up)
chain: PAIQAETHEISEIVVCRRDLISFSFPQLFSRLADENQNVSEMGWIVKIGNGTRAHILPLKDAIVQGFNLLIDSQKVTLHVPANATGIVHYVQESSYLYTVQLELLFSTTGQKIVFSSHAICAPDLSVACNATHMTLTIPEFPGKLESVDFGQWSIPEDQWHANGIDKEATNGLRLNFRKSLLKTKPSEKCPFYQFYLSSLKLTFYFQGNMLSTVIDPECHCESPVS
- binding result: binds
